For this assay, the target named is SARS-CoV-2 S2 protein (SARS-CoV-2 (Wuhan-Hu-1 assumed), UniProt P0DTC2). Put plainly: ELISA. On the technique in general: ELISA stands for enzyme-linked immunosorbent assay.

B1: monoclonal antibody 7F3 (antibody, V domains shown)
VH: EVQLVESGGGLVKPGRSLRLSCTASGFTFGDYAMSWFRQAPGKGLEWVGFIRSKAYGGTTEYAASVKGRFTISRDDSKSIAYLQMNSLKTEDTAVYYCTRDRYARYDILTGLSPAGADYFYYAMDVWGQGTTVTVSS
VL: EIVLTQSPATLSLSPGERATLSCRASQSVSSYLAWYQQKPGQAPRLLIYDASNRATGIPARFSGSGSGTDFTLTISSLEPEDFAVYYCQQRSNWPQYTFGQGTKLEIK
For the molecule B1, the binding result is “no binding”.

B2: monoclonal antibody 4L12 (antibody, V domains shown)
VH: EVQLVESGGGLVQPGGSLRLSCAASGITVSSNYMNWVRQAPGRGLEWVSLLYSGGSTYYADSVKGRFTISRDNSKNTLYLQMNSLRAEDTAVYYCARDLITYGMDVWGQGTTVTVSS
VL: AIQLTQSPSSLSASVGDRVTITCRASQGISSYLAWYQQKPGKAPKLLIYAASTLQSGVPSRFSGSGSGTDFTLTISSLQPEDFATYYCQQLNSYPPLTFGGGTKVEIK
As to B2, the binding result was “no binding”.
